Reference: patent US20260008817A1, “CYCLIC PEPTIDE OR SALT THEREOF, AND USES THEREOF” (FUJIFILM Corporation, priority 2023, published 2026)
Positions of bridges follow the written chain, without caps; N, C: chain ends. No end group written: not given here. COCH2 = acetyl group that carries the bridge

These substances were tested against T1, Recombinant Human FGFR1 alpha (IIIc) Fc Chimera Protein (Homo sapiens, UniProt P11362) (assay: ELISA binding affinity of enzymatically synthesized peptide to FGFR). Conditions: ELISA luminescence signal at 10 nmol/L peptide, SEQ ID NO: 239 standardized to 1; enzyme synthesis product.
T1 construct: purchased R&D systems 658-FR-050
T1 sequence (P11362 with tags, fused parts or gaps limits assumed): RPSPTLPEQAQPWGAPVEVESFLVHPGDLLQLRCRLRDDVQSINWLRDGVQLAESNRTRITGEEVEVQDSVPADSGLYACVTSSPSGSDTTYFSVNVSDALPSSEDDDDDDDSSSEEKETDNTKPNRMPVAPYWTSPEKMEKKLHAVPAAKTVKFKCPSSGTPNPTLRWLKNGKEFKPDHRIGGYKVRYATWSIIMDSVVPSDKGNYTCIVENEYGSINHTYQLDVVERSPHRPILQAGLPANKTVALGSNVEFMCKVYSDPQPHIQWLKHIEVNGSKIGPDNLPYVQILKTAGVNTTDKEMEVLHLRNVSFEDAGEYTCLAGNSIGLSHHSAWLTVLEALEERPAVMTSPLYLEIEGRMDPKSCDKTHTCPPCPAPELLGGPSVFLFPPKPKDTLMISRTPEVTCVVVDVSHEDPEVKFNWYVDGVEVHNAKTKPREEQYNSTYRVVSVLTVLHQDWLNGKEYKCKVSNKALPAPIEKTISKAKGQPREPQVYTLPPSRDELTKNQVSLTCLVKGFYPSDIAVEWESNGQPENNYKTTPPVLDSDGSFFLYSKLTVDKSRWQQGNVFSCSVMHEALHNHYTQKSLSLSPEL
Experimental: The binding affinity of the peptide to FGFR was evaluated using an ELISA method.
The peptide used for the evaluation was enzymatically synthesized by the following method.
First, a fusion peptide (SEQ ID NO: 25) in which a translation enhancing sequence (SEQ ID NO: 22), a peptide, a Myc tag (SEQ ID NO: 23), and a HiBiT tag (SEQ ID NO: 24) were linked in this order was designed. Next, a template DNA sequence (SEQ ID NO: 26) was designed in which a T7 promoter sequence, a Shine-Dalgarno sequence, a sequence necessary for transcription and translation initiation, such as a start codon (ATG), was provided on the 5′ terminal side of the DNA sequence encoding the fused peptide, and a stop codon group was provided on the 3′ terminal side thereof. In a case where the triplet TAG codon is included in the template DNA sequence, the above-described codon is assigned to the codon of chloroacetylated lysine, and thus, the peptide encoded by the above-described DNA sequence is a cyclic peptide in which a thiol group of cysteine and a chloroacetyl group of chloroacetylated lysine spontaneously form a thioether bond.
The cell-free enzymatic synthesis of the polypeptide was performed in a translation solution containing a template DNA, PUREfrex 2.0 (GeneFrontier, PF201-0.25-5), and Aminoacyl tRNA (1). 1.75 μL ([…]) of the template DNA prepared to 50 ng/μL, 2.5 μL of PUREfrex 2.0 Solution I, 0.25 μL of Solution II, 0.5 μL of Solution III, and a dried product of Aminoacyl tRNA (1) (final concentration: 0.5 ng/μL) were mixed and mixture was subjected to a reaction at 37° C. for 1 hour.
The concentration of the enzymatically synthesized peptide was measured using the peptide diluted with Can Get Signal Immunoreaction Enhancer Solution I (TOYOBO, NKB-101), Nano-Glo HiBiT Lytic Detection System (Promega, N3040), and a chemical synthetic peptide for a calibration curve having a known concentration (SEQ ID NO: 33) according to the standard protocol of the Nano-Glo HiBiT Lytic Detection System.
The binding affinity of the enzymatically synthesized peptide to FGFR was measured by evaluating the amount of the peptide bound to FGFR by ELISA.
First, 5 ng of Recombinant Human FGFR1 alpha (IIIc) Fc Chimera Protein (R&D systems, 658-FR-050) was immobilized in each well of a 96-well plate, and blocked with Pierce Protein-Free (PBS) Blocking Buffer (Thermo, 37572), and a peptide diluted with Can Get Signal Immunoreaction Enhancer Solution I (TOYOBO, NKB-101) was then added and reacted at room temperature for 3 hours. After washing with 0.05% Tween 20-containing phosphate buffered saline (PBS), an anti-Myc antibody (Cell Signaling, 14038S) diluted with Can Get Signal Immunoreaction Enhancer Solution II (TOYOBO, NKB-101) was added and reacted at room temperature for 2 hours. After washing with 0.05% Tween 20-containing PBS, SuperSignal ELISA Femto Substrate (Thermo, 37075) was added, and the luminescence amount was measured. The dose-response relationship was calculated from using the difference between the luminescence amount in the well in which FGFR was immobilized and the luminescence amount in the well in which FGFR was not immobilized, and the concentration of the peptide at the time of reaction, and the binding affinity to FGFR was evaluated according to the following evaluation criteria. The evaluation result preferably satisfies the evaluation criteria A, B, or C.
In a case where a value of a luminescence signal emitted by the cyclic peptide set forth in SEQ ID NO: 239 at a reaction concentration of 10 nmol/L is standardized to 1, evaluation criteria of the luminescence signal value emitted by the peptide at a reaction concentration of 10 nmol/L is as follows. • A: 0.7 or more • B: 0.5 or more and less than 0.7 • C: 0.1 or more and less than 0.5 • D: less than 0.1.

Row | Substance | Evaluation result of binding affinity to FGFR
1 | 117 (ICVYTFDARAHSLHAALTKI; Description of Artificial Sequence: Cyclic peptide) [compound 117] | A (0.7 or more)
2 | 118 (ICVYTFDAHGHSLHAALTKI; Description of Artificial Sequence: Cyclic peptide) [compound 118] | C (0.1 or more and less than 0.5)
3 | 119 (ICVYTFDAHIHSLHAALTKI; Description of Artificial Sequence: Cyclic peptide) [compound 119] | C (0.1 or more and less than 0.5)
4 | 120 (ICVYTFDAHVHSLHAALTKI; Description of Artificial Sequence: Cyclic peptide) [compound 120] | C (0.1 or more and less than 0.5)
5 | 121 (ICVYTFDAHFHSLHAALTKI; Description of Artificial Sequence: Cyclic peptide) [compound 121] | C (0.1 or more and less than 0.5)
6 | 122 (ICVYTFDAHYHSLHAALTKI; Description of Artificial Sequence: Cyclic peptide) [compound 122] | C (0.1 or more and less than 0.5)
7 | 123 (ICVYTFDAHWHSLHAALTKI; Description of Artificial Sequence: Cyclic peptide) [compound 123] | C (0.1 or more and less than 0.5)
8 | 124 (ICVYTFDAHQHSLHAALTKI; Description of Artificial Sequence: Cyclic peptide) [compound 124] | B (0.5 or more and less than 0.7)
9 | 125 (ICVYTFDAHSHSLHAALTKI; Description of Artificial Sequence: Cyclic peptide) [compound 125] | C (0.1 or more and less than 0.5)
10 | 126 (ICVYTFDAHTHSLHAALTKI; Description of Artificial Sequence: Cyclic peptide) [compound 126] | C (0.1 or more and less than 0.5)
11 | 127 (ICVYTFDAHDHSLHAALTKI; Description of Artificial Sequence: Cyclic peptide) [compound 127] | C (0.1 or more and less than 0.5)
12 | 128 (ICVYTFDAHEHSLHAALTKI; Description of Artificial Sequence: Cyclic peptide) [compound 128] | C (0.1 or more and less than 0.5)
13 | 129 (ICVYTFDAHRHSLHAALTKI; Description of Artificial Sequence: Cyclic peptide) [compound 129] | C (0.1 or more and less than 0.5)
14 | 130 (ICVYTFDAHHHSLHAALTKI; Description of Artificial Sequence: Cyclic peptide) [compound 130] | C (0.1 or more and less than 0.5)
15 | 131 (ICVYTFDAHAASLHAALTKI; Description of Artificial Sequence: Cyclic peptide) [compound 131] | A (0.7 or more)
16 | 132 (ICVYTFDAHAGSLHAALTKI; Description of Artificial Sequence: Cyclic peptide) [compound 132] | A (0.7 or more)

The remaining lines, values ahead:

Row | Evaluation result of binding affinity to FGFR | Substance
17 | A (0.7 or more) | 133 (ICVYTFDAHAPSLHAALTKI; Description of Artificial Sequence: Cyclic peptide) [compound 133]
18 | A (0.7 or more) | 134 (ICVYTFDAHALSLHAALTKI; Description of Artificial Sequence: Cyclic peptide) [compound 134]
19 | B (0.5 or more and less than 0.7) | 135 (ICVYTFDAHAISLHAALTKI; Description of Artificial Sequence: Cyclic peptide) [compound 135]
20 | A (0.7 or more) | 136 (ICVYTFDAHAVSLHAALTKI; Description of Artificial Sequence: Cyclic peptide) [compound 136]
21 | C (0.1 or more and less than 0.5) | 137 (ICVYTFDAHAFSLHAALTKI; Description of Artificial Sequence: Cyclic peptide) [compound 137]
22 | C (0.1 or more and less than 0.5) | 138 (ICVYTFDAHAYSLHAALTKI; Description of Artificial Sequence: Cyclic peptide) [compound 138]
23 | C (0.1 or more and less than 0.5) | 139 (ICVYTFDAHAWSLHAALTKI; Description of Artificial Sequence: Cyclic peptide) [compound 139]
24 | A (0.7 or more) | 140 (ICVYTFDAHANSLHAALTK(COCH2)I; thioether 2-19 (inferred)) [compound 140]
25 | A (0.7 or more) | 141 (ICVYTFDAHAQSLHAALTK(COCH2)I; thioether 2-19 (inferred)) [compound 141]
26 | A (0.7 or more) | 142 (ICVYTFDAHASSLHAALTK(COCH2)I; thioether 2-19 (inferred)) [compound 142]
27 | A (0.7 or more) | 143 (ICVYTFDAHATSLHAALTK(COCH2)I; thioether 2-19 (inferred)) [compound 143]
28 | A (0.7 or more) | 144 (ICVYTFDAHADSLHAALTK(COCH2)I; thioether 2-19 (inferred)) [compound 144]
29 | A (0.7 or more) | 145 (ICVYTFDAHAESLHAALTK(COCH2)I; thioether 2-19 (inferred)) [compound 145]
30 | A (0.7 or more) | 146 (ICVYTFDAHARSLHAALTK(COCH2)I; thioether 2-19 (inferred)) [compound 146]
31 | B (0.5 or more and less than 0.7) | 147 (ICVYTFDAHAHALHAALTK(COCH2)I; thioether 2-19 (inferred)) [compound 147]
32 | C (0.1 or more and less than 0.5) | 148 (ICVYTFDAHAHGLHAALTK(COCH2)I; thioether 2-19 (inferred)) [compound 148]
33 | C (0.1 or more and less than 0.5) | 149 (ICVYTFDAHAHLLHAALTK(COCH2)I; thioether 2-19 (inferred)) [compound 149]
34 | C (0.1 or more and less than 0.5) | 150 (ICVYTFDAHAHILHAALTK(COCH2)I; thioether 2-19 (inferred)) [compound 150]
35 | C (0.1 or more and less than 0.5) | 151 (ICVYTFDAHAHVLHAALTK(COCH2)I; thioether 2-19 (inferred)) [compound 151]
36 | C (0.1 or more and less than 0.5) | 152 (ICVYTFDAHAHFLHAALTK(COCH2)I; thioether 2-19 (inferred)) [compound 152]
37 | C (0.1 or more and less than 0.5) | 153 (ICVYTFDAHAHYLHAALTK(COCH2)I; thioether 2-19 (inferred)) [compound 153]
38 | C (0.1 or more and less than 0.5) | 154 (ICVYTFDAHAHWLHAALTK(COCH2)I; thioether 2-19 (inferred)) [compound 154]
39 | A (0.7 or more) | 155 (ICVYTFDAHAHNLHAALTK(COCH2)I; thioether 2-19 (inferred)) [compound 155]
